Results reported in article PMC11215335.

Target: single-chain Fv antibody fragment 18B7
Assay: not stated; soluble scFv produced in the periplasm of E. coli (Fig. S2A)

single-chain Fv antibody fragment 18B7 (scFv), sequence (VH): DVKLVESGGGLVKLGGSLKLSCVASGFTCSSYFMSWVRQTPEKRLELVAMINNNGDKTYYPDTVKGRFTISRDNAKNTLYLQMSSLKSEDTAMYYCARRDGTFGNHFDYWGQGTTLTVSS
single-chain Fv antibody fragment 18B7 (scFv), sequence (VL): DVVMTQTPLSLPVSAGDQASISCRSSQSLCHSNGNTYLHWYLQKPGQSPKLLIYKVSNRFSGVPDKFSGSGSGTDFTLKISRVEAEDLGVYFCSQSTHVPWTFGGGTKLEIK

- stoichiometry N: 2
Substance: single-chain Fv antibody fragment 18B7 (scFv)
